The assay has as its target T1, Trimeric His-Tagged SARS-CoV-2 Spike Glycoprotein, labelled with Alexa Fluor 647 (SARS-CoV-2, original (Wuhan-Hu-1) strain, UniProt P0DTC2, Alexa Fluor 647 (N-hydroxysuccinimide ester), estimated 13:1 dye to protein).
T1 construct: also called full trimeric spike protein; spike protein
As to the kind of experiment: MST. The conditions noted are these: both partners purified.

B1: DesAb-HSA-P2 (VHH)
VHH: EVQLEESGGGLVQPGGSLRLSCAASGFNIKDTYIGWVRQAPGKGEEWVASIYPTSGYTRYADSVKGRFTISADTSKNTAYLQMNSLRAEDTAVYYCAAGSAQAGNAEEAEEEFDYWGQGTLVTVSS
Regarding B1, the binding result was “no binding (tested: 4 μM)”.
